Assay results taken from patent US20250269018A1, “COMBINED CANCER THERAPY WITH AN EPITHELIAL CELL ADHESION MOLECULE (EPCAM) INHIBITOR AND A HEPATOCYTE GROWTH FACTOR RECEPTOR (HGFR) INHIBITOR” (ACADEMIA SINICA, priority 2021, published 2025).

B1: EpAb2-6: anti-EpCAM neutralizing monoclonal antibody targeting EpEX; VH SEQ ID NO: 15, VL SEQ ID NO: 16 (antibody, listed as Homo sapiens, V domains shown)
VH: VKLQESGPELKKPGETVKISCKASGYTFTDYSMHWVKQAPGKGLKWMGWINTETGEPTYADDFKGRFAFSLETSASTAYLQINNLKNEDTATYFCARTAVYWGQGTTVTVSS
VL: DIQMTQSPSSLSASLGERVSLTCRASQEISVSLSWLQQEPDGTIKRLIYATSTLDSGVPKRFSGSRSGSDYSLTISSLESEDFVDYYCLQYASYPWTFGGGTKLEIKRADAAPTVS

Test system: HGFR signaling
Assay: Western blotting of phosphorylated HGFR, AKT, ERK, FAK in HCT116 cells
Format: cell-based, human
Settings: for phosphorylation of HGFR, AKT, and ERK: FIG. 7D
Procedure: FIGS. 2A to 2K. EpEX promotes tumor progression via HGFR signaling. (FIG. 2A) WT or EpCAM knockout (KO) HCT116 and HT29 cells treated with HGF (0.5 nM) for 15 min. The phosphorylation of HGFR, AKT, and ERK was examined by Western blotting. (FIG. 2B) WT or KO HCT116 and HT29 cells were treated with HGF (0.5 nM) with 2% FBS for the indicated times. Cell growth was examined by the WST-1 assay. (FIG. 2C) Starved HCT116 cells were treated with HGFR inhibitor SU11274 (SU, 10 μM) for 1 h then treated with 50 nM of EpEX-His for 15 min. The levels of phosphorylated HGFR, EGFR, AKT, and ERK were examined by Western blotting. HCT116 and HT29 cells were treated with 50 nM EpEX and SU (10 μM). (FIG. 2D) Cell growth was examined by WST-1 assay after treatment for indicated time. (FIG. 2E) HCT116 cells were treated with shLuc or HGFR shRNA then treated with 50 nM of EpEX-His for 15 min. The levels of phosphorylated HGFR, EGFR, ERK, and AKT were examined in HGFR knockdown HCT116 cells by Western blotting. (FIG. 2F) The levels of phosphorylated ADAM17 and presenilin 2 were examined by Western blotting. (FIG. 2G) Active β-catenin nuclear translocation was assay by using Western blotting. (H) HCT116 cells were treated with shLuc or HGFR shRNA then treated with 50 nM of EpEX-His for indicated times. Cell growth was examined by the WST-1 assay. (FIG. 2I) HCT116 cells after shLuc and shHGFR treatment were treated with 50 nM of EpEX-His with 2% FBS for 7 days. Colony formation was examined by crystal violet staining.
FIGS. 6A to 6J. EpAb2-6 inhibits EpCAM and HGFR signaling and promotes active β-catenin and Snail protein degradation via activating GSK3β. (FIG. 6A) HCT116 cells were treated with 10 μg/ml control IgG (normal mouse IgG, NMIgG) or mouse EpAb2-6 (EpAb2-6) for 16 h, followed by treatment with EpEX-His (50 nM) for 15 min. Levels of phosphorylated HGFR, AKT, FAK, GSK3β, ERK, ADAM17, and presenilin 2 were examined by Western blotting. (FIG. 6B) HCT116 cells were treated with 10 μg/ml control IgG or mouse EpAb2-6 for 16 h, followed by treatment without or with HGF (0.5 nM) for 15 min. Levels of phosphorylated HGFR, AKT, and ERK were examined by Western blotting. HCT116 cells were treated with mouse EpAb2-6 (10 μg/ml) and HGF (0.5 nM). (FIG. 6C) Cell migration was examined by the wound healing assay at the indicated times. (FIG. 6D) Cell invasion was assessed by a Transwell assay with matrigel after 24 h. (FIG. 6E) HCT116 cells were treated with NMIgG or EpAb2-6 for 6 h and then immunoprecipitated with anti-EpCAM (IP: EpCAM) or anti-HGFR (IP: HGFR) antibodies, followed by Western blotting. (FIG. 6F) EpEX-His (2 μg/ml) co-treated with 1 μg IgG or EpAb2-6 was added to HGFR-Fc-coated (1 μg/ml) ELISA plates and detected by TMB colorimetric peroxidase assay. (FIG. 6G) EMT associated protein levels were detected by Western blotting in HCT116 cells treated with NMIgG or EpAb2-6 for 24 h. (FIG. 6H) Protein expression was analyzed by Western blotting in HCT116 cells after treatment with EpAb2-6 and 2 μM GSK3β inhibitor (BIO) for 24 h. Quantification of the normalized protein expression in the bottom panel. (FIG. 6I) HCT116 cells were treated with 10 μM MG132 and EpAb2-6 for 6 h before cell collection and subsequent Western blotting. (FIG. 6J) Stability of Snail protein in HCT116 cells treated with NMIgG or EpAb2-6. Cells were treated with cyclohexamide (CHX) 100 μg/ml at the indicated intervals and subjected to Western blotting.
FIGS. 7A to 7G. EpAb2-6 binds EpEX and induces apoptosis by F(ab′)2 and inhibits regulated intramembrane proteolysis (RIP) activation and HGFR signaling. (FIG. 7A) Binding affinity of IgG EpAb2-6 (mouse) and F(ab′)2 to EpEX-His (1 μg/ml) coated overnight was checked using ELISA (OD450). (FIG. 7B) HCT116 cells were treated with 100 μg/ml control IgG, Fc, or F(ab′)2 of EpAb2-6 for 24 h. The apoptotic and necrotic cells were quantified by fluorescein annexin V-FITC/PI double labeling. […]

[1] = HCT116, 10 μg/ml 16 h, then EpEX-His 50 nM 15 min

| Molecule | EpEX-mediated ERK and AKT phosphorylation (HCT116 cells, SU 10 μM 1 h, then 50 nM EpEX-His 15 min, FIG. 2C) | phosphorylation of HGFR, AKT, and ERK [1] | phosphorylation of HGFR, AKT, ERK, and FAK (HCT116, 10 μg/ml 16 h, then EpEX-His 50 nM 15 min, vs control IgG, FIG. 6A) | phosphorylation levels of HGFR, AKT, and ERK (HCT116, 10 μg/ml 16 h, without or with HGF 0.5 nM 15 min, FIG. 6B) | levels of phosphorylated HGFR (after EpAb2-6 treatment, discussion statement) |
| --- | --- | --- | --- | --- | --- |
| Cc1[nH]c(C=C2C(=O)Nc3ccc(S(=O)(=O)N(C)c4cccc(Cl)c4)cc32)c(C)c1C(=O)N1CCN(C)CC1 (stereo in doubt) [SU11274, (3Z)-N-(3-Chlorophenyl)-3-({3,5-dimethyl-4-[(4-methylpiperazin-1-yl)carbonyl]-1H-pyrrol-2-yl}methylene)-N-methyl-2-oxo-2,3-dihydro-1H-indole-5-sulfonamide] | attenuate EpEX-mediated ERK and AKT phosphorylation |  |  |  |  |
| MT201: human anti-EpCAM antibody, adecatumumab (MT201) |  | did not |  |  |  |
| B1 |  | inhibited phosphorylation of HGFR, AKT, and ERK | decreased phosphorylation of HGFR, AKT, ERK, and FAK | significantly decreased | decreased levels of phosphorylated HGFR |
